Experimental data from the nanobody polyreactivity screen of Harvey et al. (2022).

Assay: yeast display, Sf9 membrane polyspecificity reagent, FACS + sequencing; frameworks hold sequencing errors
Method in brief: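 Synthetic nanobody libraries on Saccharomyces cerevisiae BJ5465 were galactose-induced for 36–48 hours, stained 1 hour at 4 °C with 10% biotinylated, detergent-solubilized Sf9 membrane reagent and enriched on streptavidin microbeads. FACS then separated cells into low and high (top ~1%) gates by anti-HA (expression) and streptavidin (reagent binding) fluorescence. Genes were colony-PCR amplified, MiSeq 2 × 250 sequenced and CDR-length filtered. A clone's polyreactivity label is that of its gate of origin.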

Row | Sequence | polyreactivity (PSR sort gate)
1 | QVQLVESVGGLVQAGASHRLSCAASGLNFFKYTMGWYIQAPGKERELVAAISRRGGSTYYADSVKGRFTISRDNAKNTVYLQMNSLKPDDTAVYYCNKRLGTGYYYGYDYWGQGTQVTGSS | high polyreactivity
2 | QVQLVESGGGLVQAGGSLRLSCAASGRTFDYNAMGWYRQAPGKEREMVAAISSSGGSTYYADSVKGRFTISRDNAKNTVYLQMNSLKPEDTAVYYCATLYPRISIYYYWGQGTQVTVSS | high polyreactivity
3 | QVQLVESGGGLVQAGGSLRLSCAASGRTFGYNVMGWYRQAPGKERELVAAISSGGNTYYADSVKGRFTISRDNAKNTVYLQMNSLKPEDTAVYYCNARQYRYLSDRMNYWGQGTQVTVSS | low polyreactivity
4 | QVQLVESGGGLVQAGGSLRLSCAASGIIFPVYAMGWYRQAPGKERELVAAISSSGSSTYYADSVKGRFTISRDNAKNTVYLQMNSLKPEDTAVYYCAAVRYGLRRMDYWGQGTQVTVSS | high polyreactivity
5 | QVQLVESGGGIVQAGGSLRLSCAASGFIFYRYAMGWYRQAPGKERELVAAITGSGARTYYADSVKGRFTISRDNAKNTVYLQMNSLKPEDTAVYYCNARGYRGYDYWGQGTQVTVSS | high polyreactivity
6 | QVQLVESGGGLVQAGGILRLSCAASGRIFYINAMGWYRQAPGKERELVATISWSGGSTNYADSVKGRFTISRDNAKNTVYLQMKSLIPEDTAVYYCAADSRIYIAYAVRSYERDYWGQGTQVSVSS | low polyreactivity
7 | QVQLVESGGGLVQAGCSLRLSCAASGRTFVYNAMGWYRKAPGKERELVAGITGSGDSTYYADSVKGRFTISRDNAKNTVYLQMNSMKPEDTAVYYCNQLVEEDYWGQGTQVTVSS | low polyreactivity
8 | QVQLVESGGGLVQAGGSLRLSCAASRRIFSRYAMGWYRQAPGKERELVAAITGRGGSTYYADSVKGRFTISRDNAKNTVYLQMNSLKPEDTAVYYCAADVPPRRNFVKYYYWGQGTQVTVSS | high polyreactivity
9 | QVQLVESGGGLVQAGGSLRLSSSASGGTFWDYAMGCYRQAPGKERELVAAINWSGDSTYADSVKGRFTISRDNAKNTCYLQMTSLKPEDTAVYYCNADVWYYRMDYWGQGTQVTVSS | low polyreactivity
10 | QVQLVESGGGLVQAGGSLRLSCAASGSIFGYNVMGWYRQAPGKERELVAAINYSGGRTYYADSVKGRFTISRDNAKNTVYLEMNSLKPEDTAVYYCAAVPLSRYTVFNYDYWGQGTQVTVSS | high polyreactivity
11 | QFQLVESGGGLVQAGGSLRLSCAASGSIFYGYTMGWYRQEPGKERELLAAIRKSGGSTNYADSVKGRFTISRDNAKNTVYLQMNSLKPEDTAVYYCSASYYRGRGYYWGQGTQVTVSS | high polyreactivity
12 | QVQLVESGRGLLQAGGSLPLSCAASGRIFAYNTMGWYRQAPGKERELVAAISWRGGSTYYADSVKGRFTISRDNAKKTVYFQMNSLKPEDTAVYYCSVLYSSFTRFDYWGQGSQVTVSS | high polyreactivity
13 | QVQLVESGGGLVQAGGSLRLSCAASGLIFYENAMGWYRQAPGKERELVAAINYDGDSTYYADSVKGRFTISRDNAKNTFYLQLNSLKPEDTAVYYCAADGGWVLFWMDYWGQGTQVTVSS | low polyreactivity
14 | QVQLVESGGGLVQAGGSLRLSCAASGITLYDNAMGWYRQAPGKERELVAAINVNDVSTYYADSVKGRFTISRDNAKNTVYLQMNSLKPEDTAVYYCAADSLYYGIGYWVVRYDYWGQGTQVTVSS | low polyreactivity
15 | QVQLVESGGGLVQAGGSLRLSCAASGRTFSKYAMGWYRQAPGKERELVAAITRSGSSTYYADSVKGRFTISRDNAKNTVYLQMNSLKPEDTAVYYCAADRYVRSSGSASDYGYWGQGTQVTVSS | low polyreactivity
16 | QVQLVESGGGLVQAGGSLSLSCAASGFTFDYYAMGWYRQAPGKERELVAAISTSGGSTYYADSVKGRFTISRDNAMNTVYLQMNSLKPEDTAVYYCNVVFYEYSSVSYDYWGQGTQVTVSS | high polyreactivity

Row | Sequence | polyreactivity (PSR sort gate)
17 | QVQLVESGGGLVQAGGSLRLSCAASGNTFTWYTMGWYRQAPGKERELVAVITSDGSTYYADSVKGRFTISRDNAKNTVYLQMNSLKPEDTAVYYCNARYLRLRYPYTDEYNYWGQGTQVTVSS | low polyreactivity
18 | QVQLVESGGGLVQAGGSLRLSCAASGFISSHYAMGWYRQAPGKERELVAAISTNGGSTYYADSVKGRFTISRDNAKNTVYLQMNSLKPEDTAVYYCAAEFAVSFYWSWLGQDYNYWGQGTQVTVSS | high polyreactivity
19 | QVQLVESGGGLVQAGGSLRLSCAASGRIFTRYAMGWYRQAPGKERELVAAINSGGSTKYADSVKGRFTISRDNAKHTVYLQMNSLKPEDTAVYYCNACYWWYGYDYWGQGTQVTVSS | high polyreactivity
20 | QVQLVESGGGLVQAGGSLRISCAASGSTFRWYAMGWYRQAPGKEREFVAAITWSGGRTYYADSVKGRFTISRDNAKNTVYLQMNSLKPEDTAVYYGNADDYGDSFNYWGQGTQVTVSS | high polyreactivity
21 | QVQLVESGGGLVQAGGSLRLSCAASGIIFSSYAMGWYRQAPGKERELVAAITRGGSTNYADSVKGRFTISRDNAKNTVYLQMNSLKPEDTAVYYCNALWRAYRNYHYIVKNDYWGEGTQVTVSS | high polyreactivity
22 | QVPLVESGGGLVQAGGSLSLSCAASGNIFPSYVMGWYSQAPGKERELVAAITGNGGSTYYADSVKGRFTISRDNAKNTVYLQMNSLTAEDTEVYYCATSAPRLLRYDSSSSPSYDNWGQGTKVTVSS | low polyreactivity
23 | QVQLVESGGGLVQAGGSLRLSCAASGRTSSTYDMGWYRLAPGKERELVADITWYGGSTYYADSVKGRFTISRDNAKNTVYLQMNSLIPEDTAVYYCAAERKDGGYGYGFYWGVVGLDYWGQGTQVTVSS | low polyreactivity
24 | QLQLVESGGGLVQAGGSLRLSCAASGRIFGKNDMRSYRQAPGKERELVAAITTSGGSTDYADSVKGRFTISRDKAKNTVYLQMNSLKPEDTAVYYCNAAFQNKAYIRKYKYDYWGQGTQVTVSS | low polyreactivity
25 | QVQLVESCGGIVQAGGSLRLRCAASGLIFVANAMGWYRQAPVKESEMVAAISRYGGITYYADSVKGRFTISRDNAKNTVYLEMNSLKPEDTAVYYCAKNLPSNGHYDYWGQGTQVTVSS | low polyreactivity
26 | QVQLVESGGGLVQAGGSLRLSCAASGNIFWWDAMGWYRQAPGKERELVAAITSDSTTYYADSVKGRFTISRDNAKNTVYLQMNSLKPEDTAVYYCAAYSYGGQGVDYGYWGQGTQVTVSS | low polyreactivity
27 | QVQIEESGGGLVQAGGSLRLSCAASGSTFGYYAMGWYRQAPGKERELVAAISRGGSTYYADSVKGRFTISRDIAKYTVYLQMHSLKPEDTAVYYCNAVRYLEYDWGQGTQVTVSS | high polyreactivity
28 | QFQLVESGGGLVHAGGSLRLSCAASGITFQWNSMGWYRQAPGKERELVAVISSDGRTYYADSVKGRFTISRDNAKYTVYLQMNSLKPEDTAVYYCNADRSVIHRGYIWQPGRNDYWGHGTQVTVSS | low polyreactivity
29 | QVQIVESGGGLVQAGGSLRLSCAPSGRIYGPYAIGLYRQEPGKERELDAAIRSGGSTNYADSVKGRFTISRDNAKNTVYLQMNSLNPEDTAVYYCNAVRHTYGYYSWGQGTQVTVSS | high polyreactivity
30 | QVQLVESGGGLVQAGGSLRLSCAASGLTLKRNAMGWYRQAPGKERELVAAISGRGGSTYYADSVKGRFTISRDNAKNTVYLQMNSLKPEVTAVYYCAATVQYSPIYDYWGQGTQVTVSS | high polyreactivity
31 | QVQLVESGGGLVQAGGSLRLSCAASGRIFSPYAMGWYRQAPGKERELVATITSGGSTNYADSVKGRFTISRDNAKNTVYLQKNSLKPEDTAVYYCNAVYYSNPYYYSRVWQYYYWGQGTQVTVSS | low polyreactivity
